# Assay results from patent US20100129369A1 (Eli Lilly, published 2010).
# Experiments:
# human c-Met [1] = molecular target: T1, human c-Met (human, UniProt P08581 25-1390); test: cell-based or functional assay
# human c-Met [2] = molecular target: T1, human c-Met; test: cell-based or functional assay; remark: listed apart in the source
# Human c-Met-Flis-Fc ECD [3] = molecular target: T2, Human c-Met-Flis-Fc ECD (human); test: ELISA, coated ECD-Fc, antibody 16666.667 ng/mL
# T2 construct: also called human c-Met extracellular domain (ECD)-Fc-Flis fusion; Human cMet-ECD-Fc-Flis
# Procedure: (§1) Wells of 96-well EIA/RIA high binding plates (Costar, #2592) are coated with 100 μL of 1 μg/mL human c-Met extracellular domain (ECD)-Fc-Flis fusion (SEQ ID NO:72), RON-ECD-Fc (R&D Systems, #1947-MS), or PlexinA2-ECD-Fc (Abnova, Taipei, Taiwan #H00005362-P01) in coating buffer (BioFX Labs, # COAT-1000-01) overnight at 4° C. […] After the plates are washed, 100 μL/well of substrate solution (BioFx, #TMBW-1000-01) are added and the plates are incubated for 10 min. at room temperature. 100 μL/well of stop solution (BioFx, # LSTP-1000-01) are added to stop the reaction. The colorimetric signals are developed and read at 450 nm using a SpectraMax 190 plate reader (Molecular Devices, Sunnyvale, Calif.). c-Met antibody binding to c-Met, RON and PlexinA2 ECDs is proportional to color signal production.
# Human c-Met-Flis-Fc ECD [4] = molecular target: T2, Human c-Met-Flis-Fc ECD; test: ELISA, coated ECD-Fc, antibody 0.000 ng/mL
# Procedure: as §1
# Human c-Met-Flis-Fc ECD [5] = molecular target: T2, Human c-Met-Flis-Fc ECD; test: ELISA, coated ECD-Fc, antibody 12.860 ng/mL
# Procedure: as §1
# Human c-Met-Flis-Fc ECD [6] = molecular target: T2, Human c-Met-Flis-Fc ECD; test: ELISA, coated ECD-Fc, antibody 0.357 ng/mL
# Procedure: as §1
# Human c-Met-Flis-Fc ECD [7] = molecular target: T2, Human c-Met-Flis-Fc ECD; test: ELISA, coated ECD-Fc, antibody 0.002 ng/mL
# Procedure: as §1
# Human c-Met-Flis-Fc ECD [8] = molecular target: T2, Human c-Met-Flis-Fc ECD; test: ELISA, coated ECD-Fc, antibody 0.010 ng/mL
# Procedure: as §1
# Human c-Met-Flis-Fc ECD [9] = molecular target: T2, Human c-Met-Flis-Fc ECD; test: ELISA, coated ECD-Fc, antibody 0.060 ng/mL
# Procedure: as §1
# Human c-Met-Flis-Fc ECD [10] = molecular target: T2, Human c-Met-Flis-Fc ECD; test: SPR Biacore, antibody captured, ECD-Fc analyte, 1:1 model
# Procedure: (§2) A Biacore® 2000 instrument is used to measure the binding kinetics of c-Met antibodies to human, cynomolgus monkey, and rat c-Met ECDs. Measurements are performed at 25° C. Samples are dissolved in HBS-EP buffer (150 mM sodium chloride, 3 mM EDTA, 0.005% (w/v) surfactant P-20, and 10 mM N-2-hydroxyethylpiperazine-N′-2-ethanesulfonic acid (HEPES) at pH 7.4; #BR-1001-88).
# (§3) Binding is evaluated using multiple cycles. Each cycle is performed at a flow rate of 50 μL/min., and consists of the following steps: injection of about 10 μL of a c-Met antibody at 10 μg/mL aiming at a capture of 40-100 RUs, injection of 250 μL of human, cynomolgus, or rat c-Met-Flis-Fc ECD (starting at 100 nM and using two-fold serial dilutions for each cycle) followed by 20 min. for dissociation, and regeneration using about 30 μL of 10 mM glycine hydrochloride, pH 1.5. Association and dissociation rates for each cycle are evaluated using a “1:1 (Langmuir) binding” model in the BIAevaluation software, version 4.1.
# Rat c-Met-Flis-Fc ECD = molecular target: T3, Rat c-Met-Flis-Fc ECD (rat); test: as above
# T3 construct: also called Rat cMet-ECD-Fc-Flis; rat c-Met ECD
# Procedure: as §2, §3
# [11] = molecular target: T4, Cynomolgus Monkey c-Met-Flis-Fc ECD (cynomolgus monkey); test: as above
# T4 construct: also called Cynomolgus Monkey cMet-ECD-Fc-Flis; cynomolgus monkey c-Met ECD
# Procedure: as §2, §3
# Human c-Met-Flis-Fc ECD [12] = molecular target: T2, Human c-Met-Flis-Fc ECD; test: ELISA, coated ECD-Fc, antibody 2777.778 ng/mL
# Procedure: as §1
# Human c-Met-Flis-Fc ECD [13] = molecular target: T2, Human c-Met-Flis-Fc ECD; test: ELISA, coated ECD-Fc, antibody 462.963 ng/mL
# Procedure: as §1
# Human c-Met-Flis-Fc ECD [14] = molecular target: T2, Human c-Met-Flis-Fc ECD; test: ELISA, coated ECD-Fc, antibody 2.143 ng/mL
# Procedure: as §1
# Human c-Met-Flis-Fc ECD [15] = molecular target: T2, Human c-Met-Flis-Fc ECD; test: ELISA, coated ECD-Fc, antibody 77.160 ng/mL
# Procedure: as §1
# Human c-Met-Flis-Fc ECD [16] = molecular target: T2, Human c-Met-Flis-Fc ECD; test: ELISA, coated ECD-Fc, antibody 100000.000 ng/mL
# Procedure: as §1
# T4 sequence (chain, as listed by the source limits assumed): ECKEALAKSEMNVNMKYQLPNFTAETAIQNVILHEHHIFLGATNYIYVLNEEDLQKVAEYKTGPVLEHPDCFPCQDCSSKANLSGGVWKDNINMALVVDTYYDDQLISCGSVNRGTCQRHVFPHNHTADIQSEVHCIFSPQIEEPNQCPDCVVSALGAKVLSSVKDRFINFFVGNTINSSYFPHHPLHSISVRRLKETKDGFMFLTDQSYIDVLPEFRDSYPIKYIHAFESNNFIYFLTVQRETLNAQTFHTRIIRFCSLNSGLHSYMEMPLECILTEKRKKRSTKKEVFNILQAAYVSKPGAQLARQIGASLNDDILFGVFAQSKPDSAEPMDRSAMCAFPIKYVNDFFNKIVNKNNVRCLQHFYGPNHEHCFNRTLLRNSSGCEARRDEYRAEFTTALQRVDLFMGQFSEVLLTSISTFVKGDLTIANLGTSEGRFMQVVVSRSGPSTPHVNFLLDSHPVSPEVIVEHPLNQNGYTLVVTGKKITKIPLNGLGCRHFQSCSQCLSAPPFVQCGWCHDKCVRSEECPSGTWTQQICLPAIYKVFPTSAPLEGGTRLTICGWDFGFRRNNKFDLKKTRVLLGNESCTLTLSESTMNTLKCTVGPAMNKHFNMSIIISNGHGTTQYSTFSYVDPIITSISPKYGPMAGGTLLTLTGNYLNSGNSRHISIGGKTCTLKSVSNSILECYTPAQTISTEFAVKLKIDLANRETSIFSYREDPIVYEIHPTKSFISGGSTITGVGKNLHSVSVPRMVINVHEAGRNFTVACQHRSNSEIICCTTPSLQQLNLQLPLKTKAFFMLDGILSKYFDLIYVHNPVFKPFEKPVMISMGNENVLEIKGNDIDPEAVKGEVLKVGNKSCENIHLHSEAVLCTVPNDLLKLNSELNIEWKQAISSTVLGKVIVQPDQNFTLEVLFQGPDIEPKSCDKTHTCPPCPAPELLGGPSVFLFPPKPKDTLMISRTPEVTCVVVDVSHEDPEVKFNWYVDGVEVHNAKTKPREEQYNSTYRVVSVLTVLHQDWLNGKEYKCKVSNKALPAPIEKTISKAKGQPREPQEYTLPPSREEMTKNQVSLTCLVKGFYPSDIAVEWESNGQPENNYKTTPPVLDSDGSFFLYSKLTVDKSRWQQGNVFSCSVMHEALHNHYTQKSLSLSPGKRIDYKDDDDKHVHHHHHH
# T3 sequence (chain, as listed by the source limits assumed): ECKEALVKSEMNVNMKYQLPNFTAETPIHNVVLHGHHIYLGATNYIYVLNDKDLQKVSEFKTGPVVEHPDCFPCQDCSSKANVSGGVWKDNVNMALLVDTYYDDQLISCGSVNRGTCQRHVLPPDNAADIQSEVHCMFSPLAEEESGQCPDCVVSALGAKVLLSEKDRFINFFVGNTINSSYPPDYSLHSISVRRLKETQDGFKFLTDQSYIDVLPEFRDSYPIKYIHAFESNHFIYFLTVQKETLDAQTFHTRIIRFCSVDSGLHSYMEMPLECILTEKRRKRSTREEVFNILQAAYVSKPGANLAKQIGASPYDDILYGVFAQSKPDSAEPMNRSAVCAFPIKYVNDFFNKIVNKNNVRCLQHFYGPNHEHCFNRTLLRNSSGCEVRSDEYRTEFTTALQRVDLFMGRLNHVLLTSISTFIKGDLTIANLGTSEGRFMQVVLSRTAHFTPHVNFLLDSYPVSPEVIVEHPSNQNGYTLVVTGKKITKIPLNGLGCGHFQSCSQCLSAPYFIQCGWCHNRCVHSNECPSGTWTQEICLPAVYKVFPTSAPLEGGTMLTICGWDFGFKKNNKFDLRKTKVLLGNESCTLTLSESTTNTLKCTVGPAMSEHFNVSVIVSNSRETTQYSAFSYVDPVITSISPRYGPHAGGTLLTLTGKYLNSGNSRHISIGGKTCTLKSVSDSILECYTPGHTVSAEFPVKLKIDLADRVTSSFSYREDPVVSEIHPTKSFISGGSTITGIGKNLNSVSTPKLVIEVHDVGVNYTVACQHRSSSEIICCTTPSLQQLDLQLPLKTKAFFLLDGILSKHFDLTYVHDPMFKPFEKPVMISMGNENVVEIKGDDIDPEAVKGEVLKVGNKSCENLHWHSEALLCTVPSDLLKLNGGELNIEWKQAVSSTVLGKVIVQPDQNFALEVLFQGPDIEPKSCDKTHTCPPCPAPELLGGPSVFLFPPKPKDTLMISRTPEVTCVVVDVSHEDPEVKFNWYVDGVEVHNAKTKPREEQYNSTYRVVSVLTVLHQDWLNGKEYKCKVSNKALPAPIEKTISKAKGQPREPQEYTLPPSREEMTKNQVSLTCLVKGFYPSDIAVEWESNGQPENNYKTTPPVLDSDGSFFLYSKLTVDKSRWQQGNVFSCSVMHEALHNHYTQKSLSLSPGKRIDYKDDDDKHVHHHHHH
# T2 sequence (chain, as listed by the source limits assumed): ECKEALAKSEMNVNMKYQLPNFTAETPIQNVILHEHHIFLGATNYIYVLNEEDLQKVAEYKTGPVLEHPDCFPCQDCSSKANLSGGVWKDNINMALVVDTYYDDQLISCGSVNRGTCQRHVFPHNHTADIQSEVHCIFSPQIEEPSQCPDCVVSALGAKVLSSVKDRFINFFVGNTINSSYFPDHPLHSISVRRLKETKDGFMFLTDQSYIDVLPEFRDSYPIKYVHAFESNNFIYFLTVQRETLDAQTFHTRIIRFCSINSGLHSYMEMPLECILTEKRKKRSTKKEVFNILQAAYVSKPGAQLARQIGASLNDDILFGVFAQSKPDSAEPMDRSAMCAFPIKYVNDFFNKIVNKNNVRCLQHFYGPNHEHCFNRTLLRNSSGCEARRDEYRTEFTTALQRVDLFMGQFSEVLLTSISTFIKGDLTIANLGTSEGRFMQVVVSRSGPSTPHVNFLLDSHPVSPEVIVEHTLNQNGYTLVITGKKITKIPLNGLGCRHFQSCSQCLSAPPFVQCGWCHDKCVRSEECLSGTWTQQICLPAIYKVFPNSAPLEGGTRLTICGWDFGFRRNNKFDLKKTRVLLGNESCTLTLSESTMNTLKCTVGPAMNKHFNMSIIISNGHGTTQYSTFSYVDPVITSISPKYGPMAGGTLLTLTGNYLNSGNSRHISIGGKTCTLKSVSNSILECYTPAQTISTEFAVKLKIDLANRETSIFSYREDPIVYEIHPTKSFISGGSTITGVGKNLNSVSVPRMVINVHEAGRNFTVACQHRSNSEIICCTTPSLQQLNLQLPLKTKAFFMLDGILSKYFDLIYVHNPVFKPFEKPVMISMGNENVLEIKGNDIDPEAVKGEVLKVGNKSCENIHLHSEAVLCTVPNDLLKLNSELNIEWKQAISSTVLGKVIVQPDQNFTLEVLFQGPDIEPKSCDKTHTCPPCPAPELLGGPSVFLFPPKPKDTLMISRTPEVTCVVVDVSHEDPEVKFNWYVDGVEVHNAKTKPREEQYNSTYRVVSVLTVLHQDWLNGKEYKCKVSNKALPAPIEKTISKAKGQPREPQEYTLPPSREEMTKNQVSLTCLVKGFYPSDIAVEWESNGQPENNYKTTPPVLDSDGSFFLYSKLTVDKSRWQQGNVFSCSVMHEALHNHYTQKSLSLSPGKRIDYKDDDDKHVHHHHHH
# T1 sequence (P08581 25-1390): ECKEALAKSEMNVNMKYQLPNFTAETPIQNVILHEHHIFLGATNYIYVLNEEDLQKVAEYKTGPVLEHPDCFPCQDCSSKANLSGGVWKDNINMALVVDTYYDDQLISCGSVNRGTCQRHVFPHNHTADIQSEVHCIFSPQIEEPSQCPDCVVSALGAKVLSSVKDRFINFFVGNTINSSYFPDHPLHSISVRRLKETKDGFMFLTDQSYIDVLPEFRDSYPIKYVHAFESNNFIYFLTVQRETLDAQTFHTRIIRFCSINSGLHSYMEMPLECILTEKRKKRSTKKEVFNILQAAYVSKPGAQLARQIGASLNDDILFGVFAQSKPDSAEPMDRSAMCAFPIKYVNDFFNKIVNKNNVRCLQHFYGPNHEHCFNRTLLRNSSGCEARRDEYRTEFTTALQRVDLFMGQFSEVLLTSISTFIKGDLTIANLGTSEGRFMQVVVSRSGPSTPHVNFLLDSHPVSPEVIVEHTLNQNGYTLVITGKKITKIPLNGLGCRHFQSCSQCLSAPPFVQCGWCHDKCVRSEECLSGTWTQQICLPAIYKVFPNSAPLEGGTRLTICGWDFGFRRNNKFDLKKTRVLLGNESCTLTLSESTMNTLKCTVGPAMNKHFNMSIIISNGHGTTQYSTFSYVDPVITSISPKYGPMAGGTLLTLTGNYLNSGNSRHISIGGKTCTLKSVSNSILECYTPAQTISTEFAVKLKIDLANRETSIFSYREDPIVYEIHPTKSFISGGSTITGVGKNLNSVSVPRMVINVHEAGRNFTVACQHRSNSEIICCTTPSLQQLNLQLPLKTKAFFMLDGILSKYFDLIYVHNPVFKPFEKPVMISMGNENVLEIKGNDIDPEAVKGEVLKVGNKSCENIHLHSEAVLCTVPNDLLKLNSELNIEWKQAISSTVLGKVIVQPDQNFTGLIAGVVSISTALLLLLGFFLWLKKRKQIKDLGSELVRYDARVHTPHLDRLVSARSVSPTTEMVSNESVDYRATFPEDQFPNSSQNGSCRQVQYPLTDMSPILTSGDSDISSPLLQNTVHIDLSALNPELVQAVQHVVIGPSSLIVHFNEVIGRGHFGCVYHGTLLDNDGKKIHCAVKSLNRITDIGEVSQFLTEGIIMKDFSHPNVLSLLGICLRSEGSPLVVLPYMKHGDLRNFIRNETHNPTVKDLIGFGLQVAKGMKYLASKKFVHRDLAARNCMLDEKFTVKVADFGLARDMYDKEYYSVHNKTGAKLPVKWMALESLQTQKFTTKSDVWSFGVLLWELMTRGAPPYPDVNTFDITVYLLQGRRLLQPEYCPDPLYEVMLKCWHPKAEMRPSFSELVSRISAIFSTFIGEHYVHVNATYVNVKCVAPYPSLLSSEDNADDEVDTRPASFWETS
Binder,"3H-Thymidine Incorporation in Caki-1 Cells in the Absence of HGF (AVG CPM), antibody dose 0.1 ng/mL (human c-Met [1])","3H-Thymidine Incorporation in Caki-1 Cells in the Absence of HGF (AVG CPM), antibody dose 0.4 ng/mL (human c-Met [1])","3H-Thymidine Incorporation in Caki-1 Cells in the Absence of HGF (AVG CPM), antibody dose 2.6 ng/mL (human c-Met [1])","3H-Thymidine Incorporation in Caki-1 Cells in the Absence of HGF (AVG CPM), antibody dose 15.4 ng/mL (human c-Met [1])","3H-Thymidine Incorporation in Caki-1 Cells in the Absence of HGF (AVG CPM), antibody dose 92.6 ng/mL (human c-Met [1])","3H-Thymidine Incorporation in Caki-1 Cells in the Absence of HGF (AVG CPM), antibody dose 555.6 ng/mL (human c-Met [1])","3H-Thymidine Incorporation in Caki-1 Cells in the Absence of HGF (AVG CPM), antibody dose 3333.3 ng/mL (human c-Met [1])","3H-Thymidine Incorporation in Caki-1 Cells in the Absence of HGF (AVG CPM), antibody dose 20000.0 ng/mL (human c-Met [1])","3H-Thymidine Incorporation in Primary Human Hepatocytes in the Absence of HGF (average), dose 0.0032 ug/mL (human c-Met [2])","3H-Thymidine Incorporation in Primary Human Hepatocytes in the Absence of HGF (average), dose 0.016 ug/mL (human c-Met [2])","3H-Thymidine Incorporation in Primary Human Hepatocytes in the Absence of HGF (average), dose 0.08 ug/mL (human c-Met [2])","3H-Thymidine Incorporation in Primary Human Hepatocytes in the Absence of HGF (average), dose 0.4 ug/mL (human c-Met [2])","3H-Thymidine Incorporation in Primary Human Hepatocytes in the Absence of HGF (average), dose 2 ug/mL (human c-Met [2])","3H-Thymidine Incorporation in Primary Human Hepatocytes in the Absence of HGF (average), dose 10 ug/mL (human c-Met [2])",Average A450 nm (Human c-Met-Flis-Fc ECD [3]),Average A450 nm (Human c-Met-Flis-Fc ECD [4]),Average A450 nm (Human c-Met-Flis-Fc ECD [5]),Average A450 nm (Human c-Met-Flis-Fc ECD [6]),Average A450 nm (Human c-Met-Flis-Fc ECD [7]),Average A450 nm (Human c-Met-Flis-Fc ECD [8]),other results
"D11-C27G3 (antibody, human IgG2, kappa, V domains shown) VH: QVQLVQSGAEVKKPGSSVKVSCKASGYTFTSRYIHWVRQAPGQGLEWMGWIYPVTGDTYYREPFKGRVTITADKSTSTAYMELSSLRSEDTAVYYCARGYGAFYYWGQGTLVTVSS VL: EIVLTQSPGTLSLSPGERATLSCSVSSSISSTNLHWYQQKPGQAPRLLIYGTSRLRSGIPDRFSGSGSGTDFTLTISRLEPEDFAVYYCQQWSSYPYSFGQGTKLEIKR",17700 CPM,13600 CPM,13300 CPM,13800 CPM,14700 CPM,14500 CPM,15800 CPM,16100 CPM,693,892,1280,1750,1870,2150,,,,,,,
"D11-S17Y (antibody, human IgG2, kappa, V domains shown) VH: QVQLVQSGAEVKKPGSSVKVSCKASGYTFTSRYIHWVRQAPGQGLEWMGWIYPVTGDTYYNEKFKGRVTITADKSTSTAYMELSSLRSEDTAVYYCARGYGAFYYWGQGTLVTVSS VL: EIVLTQSPGTLSLSPGERATLSCSVSSSISSTNLHWYQQKPGQAPRLLIYGTSYLASGIPDRFSGSGSGTDFTLTISRLEPEDFAVYYCQQWSSYPYSFGQGTKLEIKR",15900 CPM,14600 CPM,14900 CPM,14600 CPM,15300 CPM,16600 CPM,17900 CPM,18600 CPM,726,920,1460,1910,2570,3160,,,,,,,
"D11-C27G3 (antibody, human IgG2, kappa, V domains shown, Human engineered IgG2, kappa; also called D11-27G3) VH: QVQLVQSGAEVKKPGSSVKVSCKASGYTFTSRYIHWVRQAPGQGLEWMGWIYPVTGDTYYREPFKGRVTITADKSTSTAYMELSSLRSEDTAVYYCARGYGAFYYWGQGTLVTVSS VL: EIVLTQSPGTLSLSPGERATLSCSVSSSISSTNLHWYQQKPGQAPRLLIYGTSRLRSGIPDRFSGSGSGTDFTLTISRLEPEDFAVYYCQQWSSYPYSFGQGTKLEIKR",,,,,,,,,,,,,,,4 A450 nm,0.284 A450 nm,4 A450 nm,1.44 A450 nm,0.271 A450 nm,0.29 A450 nm,Average A450 nm (Human c-Met-Flis-Fc ECD [9]): 0.46 A450 nm; Kd (Human c-Met-Flis-Fc ECD [10]): 1.4 nM; koff (Human c-Met-Flis-Fc ECD [10]): 9e-05 s⁻¹; kon (Human c-Met-Flis-Fc ECD [10]): 64000 M⁻¹ s⁻¹; Kd (Rat c-Met-Flis-Fc ECD): 2.7 nM; koff (Rat c-Met-Flis-Fc ECD): 0.00034 s⁻¹; kon (Rat c-Met-Flis-Fc ECD): 130000 M⁻¹ s⁻¹; Kd [11]: 6.5 nM; koff [11]: 0.00032 s⁻¹; kon [11]: 50000 M⁻¹ s⁻¹; Average A450 nm (Human c-Met-Flis-Fc ECD [12]): 4 A450 nm; Average A450 nm (Human c-Met-Flis-Fc ECD [13]): 4 A450 nm; Average A450 nm (Human c-Met-Flis-Fc ECD [14]): 2.53 A450 nm; Average A450 nm (Human c-Met-Flis-Fc ECD [15]): 4 A450 nm; Average A450 nm (Human c-Met-Flis-Fc ECD [16]): 3.92 A450 nm
"D11-8B8 (antibody, human IgG2, kappa, V domains shown, Human engineered IgG2, kappa; expressed in HEK293 EBNA cells; also called Mab D11-8B8) VH: QVQLVQSGAEVKKPGSSVKVSCKASGYTFTSRYIHWVRQAPGQGLEWMGWIYPVTGDTYYIEKFKGRVTITADKSTSTAYMELSSLRSEDTAVYYCARGYGAFFYWGQGTLVTVSS VL: EIVLTQSPGTLSLSPGERATLSCSVSSSISSTNLHWYQQKPGQAPRLLIYGTSYLASGIPDRFSGSGSGTDFTLTISRLEPEDFAVYYCQQWSSYPYSFGQGTKLEIKR",,,,,,,,,,,,,,,4 A450 nm,0.297 A450 nm,3.93 A450 nm,1.31 A450 nm,0.299 A450 nm,0.304 A450 nm,Average A450 nm (Human c-Met-Flis-Fc ECD [9]): 0.445 A450 nm; Kd (Human c-Met-Flis-Fc ECD [10]): 0.5 nM; koff (Human c-Met-Flis-Fc ECD [10]): 5e-05 s⁻¹; kon (Human c-Met-Flis-Fc ECD [10]): 100000 M⁻¹ s⁻¹; Kd (Rat c-Met-Flis-Fc ECD): 0.89 nM; koff (Rat c-Met-Flis-Fc ECD): 0.00019 s⁻¹; kon (Rat c-Met-Flis-Fc ECD): 210000 M⁻¹ s⁻¹; Kd [11]: 2.9 nM; koff [11]: 0.000223 s⁻¹; kon [11]: 78000 M⁻¹ s⁻¹; Average A450 nm (Human c-Met-Flis-Fc ECD [12]): 4 A450 nm; Average A450 nm (Human c-Met-Flis-Fc ECD [13]): 4 A450 nm; Average A450 nm (Human c-Met-Flis-Fc ECD [14]): 2.42 A450 nm; Average A450 nm (Human c-Met-Flis-Fc ECD [15]): 4 A450 nm; Average A450 nm (Human c-Met-Flis-Fc ECD [16]): 4 A450 nm
